Assay results published in patent US20040235732A1, “Method for modulating angiogenesis using prokineticin receptor antagonists” (published 2004).

T1: human prokineticin receptor 1 (PKR1) (human)
T1 chain: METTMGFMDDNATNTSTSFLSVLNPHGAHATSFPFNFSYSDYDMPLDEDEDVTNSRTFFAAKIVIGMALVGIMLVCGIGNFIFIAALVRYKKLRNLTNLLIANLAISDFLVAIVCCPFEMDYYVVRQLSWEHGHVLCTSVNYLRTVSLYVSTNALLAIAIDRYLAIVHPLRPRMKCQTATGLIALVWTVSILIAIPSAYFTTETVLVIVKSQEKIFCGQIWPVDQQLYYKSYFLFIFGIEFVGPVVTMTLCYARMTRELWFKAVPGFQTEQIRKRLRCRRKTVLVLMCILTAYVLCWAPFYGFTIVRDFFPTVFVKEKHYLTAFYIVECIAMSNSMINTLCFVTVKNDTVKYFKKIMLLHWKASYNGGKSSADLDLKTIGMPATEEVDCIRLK


Legend:
Test in all cases: cell-based or functional assay
[1] = target: T1, human prokineticin receptor 1 (PKR1)
[2] = target: human prokineticin receptor 2 (PKR2) (human)
[3] = target: T1, human prokineticin receptor 1 (PKR1)
[4] = target: human prokineticin receptor 2 (PKR2) (human); remark: listed apart in the source

Chain of human prokineticin receptor 2 (PKR2) (human) (chain, as listed by the source): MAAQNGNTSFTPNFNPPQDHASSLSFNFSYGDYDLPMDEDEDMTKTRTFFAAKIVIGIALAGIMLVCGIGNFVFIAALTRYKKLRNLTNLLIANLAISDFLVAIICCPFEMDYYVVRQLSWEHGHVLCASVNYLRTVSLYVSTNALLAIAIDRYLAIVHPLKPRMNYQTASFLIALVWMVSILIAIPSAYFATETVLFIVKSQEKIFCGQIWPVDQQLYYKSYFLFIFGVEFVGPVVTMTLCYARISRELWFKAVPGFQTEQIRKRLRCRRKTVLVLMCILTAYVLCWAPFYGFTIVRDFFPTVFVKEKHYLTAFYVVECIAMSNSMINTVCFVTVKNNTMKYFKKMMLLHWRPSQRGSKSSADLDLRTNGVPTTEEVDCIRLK

| Binder | dissociation constant (Kb), Schild analysis of calcium mobilization [1] [nM] | dissociation constant (Kb), Schild analysis of calcium mobilization [2] [nM] | Antagonistic Activity of PK mutants (Calcium Mobilization Assay), nM; ligand PK1 [3] [nM] | Antagonistic Activity of PK mutants (Calcium Mobilization Assay), nM; ligand PK2 [3] [nM] | Antagonistic Activity of PK mutants (Calcium Mobilization Assay), nM; ligand PK1 [4] [nM] | Antagonistic Activity of PK mutants (Calcium Mobilization Assay), nM; ligand PK2 [4] [nM] |
| --- | --- | --- | --- | --- | --- | --- |
| Met PK1 (ligand) MAVITGACERDVQCGAGTCCAISLWLRGLRMCTPLGREGEECHPGSHKVPFFRKRKHHTCPCLPNLLCSRFPDGRYRCSMDLKNINF | 261 | 48.9 | 9 | 90 | 15 | 30 |
| MV PK1 (ligand) MVITGACERDVQCGAGTCCAISLWLRGLRMCTPLGREGEECHPGSHKVPFFRKRKHHTCPCLPNLLCSRFPDGRYRCSMDLKNINF | 116 | 37.8 | 6 | 110 | 16 | 29 |
